First the molecules themselves.
B1: PRT-581 (protein)
chain: MANQEIRYSKATPKTITSVWTKGVTPPENFIYNEDVLHAPYLANQGWYDITKTFNGKDDLLCGAATAGNMLHWWFDQNKEQIERYLKEHPEKQKINFNGEQMFDVKEAIDTKDSQTNSKLFEYFKDKAFPYLSTKHLGVFPDHVIDMFINGYRLSLTNHGPTPVKEQTKDPRGGIFDAVFTRGDQSKLLTSRHDFKEKTLNEISDLIKQELTEGKALGLSHTYANVRINHVINLWGADFDAEGNLEAIYVTDSDSNASIGMKKYYVGVNSAGKVAISAKEIEGDNIGAQVLGLFTLSTGKDIWEQTNLEHHHHHH
B2: PRT-584 (protein)
chain: B1 chain with K10E, A11E, E28T, L42I, E88K, E166R, D240N, K300Q
B3: PRT-578 (protein)
chain: B1 chain with T15V, N29D, I31T, L37F, A43P, T168N, N201K, T212K
B4: PRT-404 (protein)
chain: MVTSVWTKGVTPPADFTQGEDVFHAPYVANQGWYDITKTFNGKDDLLCGAATAGNMLHWWFDQNKEYIEAYLKKHPEKQKIMFGDQELLDVRKAINTKGSQKNSELFNYFRDKAFPNLSARRLGVMPDLVLDMFINGYYLNVTKTQTTDVNRTYQEKDKRGGIFDAVFTRGDQSKLLTSRHDFKEKGLKEISDLIKQELTEGKALGLSHTYANVRIGHVINLWGADFDSDGNLKAIYVTDSDSNASIGMKKYFVGVNSAGKVAISAKEIKEDNIGAQVLGLFTLSTGQDIWNQTN
B5: PRT-412 (protein)
chain: B4 chain with G217N, S258A
B6: PRT-547 (protein)
chain: MANQEIRYSEETPKTITSVWTKGVTPPTDFIQNEDVLHAPYIANQGWYDITKTFNGKDDLLCGAATAGNMLHWWFDQNKEEIENYLKKHPEKQKINFNGEQMFDVKEAIDTKDSQTDSALFEYFKDKAFPYLSTKHLGVFPDHVIDMFINGYRLSLTNHGPTPVKRGTKDPRGGIFDAVFTRGDQSKLLTARHDFKEKTLNEISDLIKQELTEGKALGLSHTYANVRINHVINLWGADFNSEGNLEAIYVTDSDSNASIGMKKYYVGVNAAGKVAISAKEIEGDNIGAQVLGLFTLSTGQDIWEQTNLEHHHHHH
B7: PRT-600 (protein)
chain: B6 chain with K14S, E81Q, A191S, S241A, A270S, I302S, E304N
B8: PRT-590 (protein)
chain: B6 chain with K14S, I16V, E81Q, A191S, S241A, A270S, E304N
B9: PRT-527 (protein)
chain: MANQEIRYSEETPKTITSVWTKGVTPPTDFIKNEDVLHAPYIANQGWYDITKTFNGKDDLLCGAATAGNMLHWWFDQNKEEIENYLKKHPEKQKINFNGEQMFDVKEAIDTKDSQTDSALFEYFKDKAFPNLSTKHLGVMPDLVLDMFINGYYLSLGKHGPTPVKRGTKDPRGGIFDAVFTRGDQSKLLTSRHDFKEKTLNEISDLIKQELTEGKALALSHTYANVRINHVINLWGADFNSEGNLEAIYVTDSDSNASIGMKKYYVGVNSAGKVAISAKEIEGDNIGAQVLGLFTLSTGQDIWEQTNLEHHHHHH
B10: PRT-248 (protein)
chain: MVTSVWTKGVTPPTNFTYGEDVLHAPYVANQGWYDITKTFNGKDDLLCGAATAGNMLHWWFDQNKEQIENYLKKHPEKQKINFNGEQMFDVKEAIDTKDSQLDSKLFEYFKEKAFPNLSTKHLGVFPDHVIDMFINGYRLSLLNHGPTPVKRGSKDPRGGIFDAVFTRGDQSKLLTNRHDFKEKTLKEISDLIKQELTEGKALGISHTYANVRINHVINLWGADFDAEGNLEAIYVTDSDSNASIGMKKYFVGVNSSGKVAISAKEIEEDNIGAQVLGLFTLSTGQDIWNQTN
B11: PRT-264 (protein)
chain: B10 chain with T39L, D45N, M88L, E108D, N117Y, L143T, P157K, D170V, S241T, A243P
B12: PRT-256 (protein)
chain: B10 chain with T39L, K111L, R213G, Y235A
B13: PRT-272 (protein)
chain: MVTSVWTKGVTPPTDFIYGEDVLHAPYKAGQGWYDITKLFNGKDDLLCGAATAGNMLHWWFDQNKEQIENYLKKHPEKQKINFNGEQMFDVKEAIDTKDSQLDSKLFEYFLEKAFPYLSTKHLGVFPDHVIDMFINGYRLSLTNHGPTPVKRGSKDPRGGIFDAVFTRGDQSKLLTNRHDLKNKTLKEISDLIKQELTEGKALGISHTYANVRINHVINLWGADFDAEGNLEAIAVTDSDSNASIGMKKYFVGVNSSGKVAISAKEIEEDNIGAQVLGLFTLSTGQDIWNQTN
B14: PRT-542 (protein)
chain: MANQEIRYSKNENPNVTIKWVHGIGEPTQAEKEKIEFWWYETTTTKFFNNRKVDHLGDGNQCWAKTDSNMLHWWFVQNEENINQYIEKKNITGKINFNGEQMFDVKEGIDDNQEPEKSYIANTFRTKKAHNLSTKHKGDYIINGLSWYLYGLNNFKNAHGPTPVKKKPKFYGPALFKDVFNRGDGNTPIIVETDFKEYTKKEFEDTLSAALDSKKAVGINIYGSNVDYQHAITLWGAAFDEEENIIAIYVVDNNFKFENRIFPYGIWYQKEGRPYLFNYEINSFVKNRYVGEITTLDKGEAQWQETNLEHHHHHH
B15: PRT-543 (protein)
chain: B14 chain with A30S, H55P, V217I, Q269E
B16: PRT-588 (protein)
chain: MRNQTTTYSEVTPSHITSVWTKGVTPPEQFIQGEDVFHAPYIANQGWYDITKTFNGKDDLLCGAATAGNMLHWWFDQNKEQIENYLKKHPEKQKIMFNNEEMFDLREAINTKDSQTDSALFSYFKDKAFPNLSARRLGVMPDHVLDMFINGYYLNVGNTDKTDVNRGTKDLRGGIFDAVFTRGDQSKLLTARHDLKNKTLKEISDLIKQELTEGKALALSHTYANVRINHVINLWGADFDAEGNLEAIYVTDSDSNASIGMKKYYVGVNSAGKVAISAKKIEGDNIGAQVLGLFTLSTGQDIWQQTNLEHHHHHH

Substitutions are numbered along the chain they refer to.

The target of the data set is pooled human IgG (human IgG1, 2, 3 and 4).
In turn, B1 gave an Enzyme Activity Endpoint Assay: Fab′2 of 660 ng/µL, an Enzyme Activity Endpoint Assay: Fc of 365 ng/µL, an Enzyme Activity Endpoint Assay: IgG of 0 ng/µL and an Enzyme Activity Endpoint Assay: scIgG of 0 ng/µL.

In turn, B2 had an Enzyme Activity Endpoint Assay: Fab′2 of 552 ng/µL, an Enzyme Activity Endpoint Assay: Fc of 369 ng/µL, an Enzyme Activity Endpoint Assay: IgG of 51 ng/µL and an Enzyme Activity Endpoint Assay: scIgG of 285 ng/µL.

Protein B3 had an Enzyme Activity Endpoint Assay: Fab′2 of 698 ng/µL, an Enzyme Activity Endpoint Assay: Fc of 394 ng/µL, an Enzyme Activity Endpoint Assay: IgG of 0 ng/µL and an Enzyme Activity Endpoint Assay: scIgG of 0 ng/µL.

On to B4, for which the Enzyme Activity Endpoint Assay (purified): Fab′2 is 0 ng/µL, the Enzyme Activity Endpoint Assay (purified): Fc worked out at 0 ng/µL, the Enzyme Activity Endpoint Assay (purified): IgG is 1580 ng/µL and the Enzyme Activity Endpoint Assay (purified): scIgG was 0 ng/µL.

Protein B5 yielded an Enzyme Activity Endpoint Assay (purified): Fab′2 of 518 ng/µL, an Enzyme Activity Endpoint Assay (purified): Fc of 103 ng/µL, an Enzyme Activity Endpoint Assay (purified): IgG of 0 ng/µL and an Enzyme Activity Endpoint Assay (purified): scIgG of 170 ng/µL.

Consider B6, for which the Enzyme Activity Endpoint Assay: Fab′2 was 527 ng/µL, the Enzyme Activity Endpoint Assay: Fc was determined as 359 ng/µL, the Enzyme Activity Endpoint Assay: IgG turned out to be 0 ng/µL and the Enzyme Activity Endpoint Assay: scIgG was determined as 256 ng/µL.

B7 came in with an Enzyme Activity Endpoint Assay: Fab′2 of 992 ng/µL, an Enzyme Activity Endpoint Assay: Fc of 441 ng/µL, an Enzyme Activity Endpoint Assay: IgG of 0 ng/µL and an Enzyme Activity Endpoint Assay: scIgG of 0 ng/µL.

B8 yielded an Enzyme Activity Endpoint Assay: Fab′2 of 954 ng/µL, an Enzyme Activity Endpoint Assay: Fc of 217 ng/µL, an Enzyme Activity Endpoint Assay: IgG of 0 ng/µL and an Enzyme Activity Endpoint Assay: scIgG of 0 ng/µL.

In turn, B9 displayed an Enzyme Activity Endpoint Assay: Fab′2 of 0 ng/µL, an Enzyme Activity Endpoint Assay: Fc of 142 ng/µL, an Enzyme Activity Endpoint Assay: IgG of 707 ng/µL and an Enzyme Activity Endpoint Assay: scIgG of 396 ng/µL.

Take B10: the Enzyme Activity Endpoint Assay: Fab′2 turned out to be 654 ng/µL, the Enzyme Activity Endpoint Assay: Fc turned out to be 370 ng/µL, the Enzyme Activity Endpoint Assay: IgG came to 0 ng/µL and the Enzyme Activity Endpoint Assay: scIgG was 0 ng/µL.

B11 yielded an Enzyme Activity Endpoint Assay: Fab′2 of 606 ng/µL, an Enzyme Activity Endpoint Assay: Fc of 353 ng/µL, an Enzyme Activity Endpoint Assay: IgG of 97 ng/µL and an Enzyme Activity Endpoint Assay: scIgG of 0 ng/µL.

On to B12, for which the Enzyme Activity Endpoint Assay: Fab′2 was 610 ng/µL, the Enzyme Activity Endpoint Assay: Fc was 376 ng/µL, the Enzyme Activity Endpoint Assay: IgG was found to be 55 ng/µL and the Enzyme Activity Endpoint Assay: scIgG was 0 ng/µL.

B13 yielded an Enzyme Activity Endpoint Assay: Fab′2 of 721 ng/µL, an Enzyme Activity Endpoint Assay: Fc of 389 ng/µL, an Enzyme Activity Endpoint Assay: IgG of 0 ng/µL and an Enzyme Activity Endpoint Assay: scIgG of 0 ng/µL.

Protein B14 gave an Enzyme Activity Endpoint Assay: Fab′2 of 0 ng/µL, an Enzyme Activity Endpoint Assay: Fc of 0 ng/µL, an Enzyme Activity Endpoint Assay: IgG of 1470 ng/µL and an Enzyme Activity Endpoint Assay: scIgG of 0 ng/µL.

As for B15, the Enzyme Activity Endpoint Assay: Fab′2 is 0 ng/µL, the Enzyme Activity Endpoint Assay: Fc was found to be 0 ng/µL, the Enzyme Activity Endpoint Assay: IgG was found to be 1470 ng/µL and the Enzyme Activity Endpoint Assay: scIgG was determined as 0 ng/µL.

Protein B16 showed an Enzyme Activity Endpoint Assay: Fab′2 of 658 ng/µL, an Enzyme Activity Endpoint Assay: Fc of 361 ng/µL, an Enzyme Activity Endpoint Assay: IgG of 0 ng/µL and an Enzyme Activity Endpoint Assay: scIgG of 0 ng/µL.

For the origin of these results see patent publication US20250027068.
